In the supplement of paper PMC9112550, “Optimization of the antimicrobial peptide Bac7 by deep mutational scanning” (BMC Biology, 2022):

Test system: Escherichia coli TOP10
Assay: shrunken log2 fold change of peptide-encoding DNA abundance (4.5 h post-induction vs induction); higher = less antimicrobial activity (less host growth inhibition)
Details: time post-induction: 4.5 h; library: site-saturation at positions 5, 18, 19, 20
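Also: peptides expressed intracellularly from a pBAD plasmid library in pooled LB shake-flask culture, induced with 0.3% L-arabinose, DNA abundance read by NGS, three biological replicates, DESeq2 with apeglm shrinkage.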

Sequence	shrunken log2 fold change
RRIRGRPPRLPRPRPRPDTWPRP	0.465
RRIRFRPPRLPRPRPRPVFQPRP	0.071
RRIRCRPPRLPRPRPRPDEDPRP	-0.0684
RRIRCRPPRLPRPRPRPLMKPRP	-0.275
RRIRQRPPRLPRPRPRPIYGPRP	-0.00674
RRIRTRPPRLPRPRPRPLMWPRP	-0.151
RRIRWRPPRLPRPRPRPLEQPRP	0.392
RRIRGRPPRLPRPRPRPWILPRP	0.112
RRIRSRPPRLPRPRPRPGLVPRP	0.275
RRIRVRPPRLPRPRPRPFGYPRP	-0.425
RRIRFRPPRLPRPRPRPSIPPRP	-0.602
RRIRERPPRLPRPRPRPSTEPRP	0.0386
RRIRARPPRLPRPRPRPHTDPRP	-0.111
RRIRPRPPRLPRPRPRPCFEPRP	0.0232
RRIRKRPPRLPRPRPRPHYFPRP	-0.268
RRIRTRPPRLPRPRPRPTEKPRP	0.015
RRIRWRPPRLPRPRPRPMLTPRP	0.391
RRIRKRPPRLPRPRPRPLYPPRP	-0.177
RRIRVRPPRLPRPRPRPDQMPRP	0.0399
RRIRARPPRLPRPRPRPFGTPRP	-0.194
RRIRKRPPRLPRPRPRPKCSPRP	0.00677
RRIRKRPPRLPRPRPRPEQRPRP	0.431
RRIRVRPPRLPRPRPRPFLYPRP	-0.728
RRIRYRPPRLPRPRPRPGVLPRP	-0.916
RRIRGRPPRLPRPRPRPRIKPRP	0.487

Sequence	shrunken log2 fold change
RRIRHRPPRLPRPRPRPPGQPRP	0.0303
RRIRVRPPRLPRPRPRPWQQPRP	-0.097
RRIRKRPPRLPRPRPRPTEIPRP	0.162
RRIRMRPPRLPRPRPRPFQWPRP	-0.0962
RRIRCRPPRLPRPRPRPLQDPRP	0.0354
RRIRMRPPRLPRPRPRPTMWPRP	0.274
RRIRQRPPRLPRPRPRPRTFPRP	-0.471
RRIRKRPPRLPRPRPRPARWPRP	0.464
RRIRWRPPRLPRPRPRPVNVPRP	-0.328
RRIRPRPPRLPRPRPRPLLKPRP	0.593
RRIRIRPPRLPRPRPRPMHFPRP	-0.487
RRIRWRPPRLPRPRPRPNIAPRP	-0.121
RRIRCRPPRLPRPRPRPGLVPRP	0.0569
RRIRCRPPRLPRPRPRPAALPRP	0.219
RRIRTRPPRLPRPRPRPINFPRP	-0.0833
RRIRVRPPRLPRPRPRPIRVPRP	-0.473
RRIRERPPRLPRPRPRPRCPPRP	0.00202
RRIRRRPPRLPRPRPRPHSGPRP	0.0307
RRIRWRPPRLPRPRPRPTMVPRP	-0.299
RRIRRRPPRLPRPRPRPPEPPRP	0.977
RRIRIRPPRLPRPRPRPDSNPRP	-0.168
RRIRPRPPRLPRPRPRPVWPPRP	0.341
RRIRWRPPRLPRPRPRPEPIPRP	0.204
RRIRARPPRLPRPRPRPSQIPRP	0.0409
RRIRARPPRLPRPRPRPVTPPRP	0.479

Sequence	shrunken log2 fold change
RRIRWRPPRLPRPRPRPHHTPRP	-0.313
RRIRGRPPRLPRPRPRPITYPRP	0.265
RRIRPRPPRLPRPRPRPCNIPRP	-0.554
RRIRIRPPRLPRPRPRPVWSPRP	0.0432
RRIRERPPRLPRPRPRPVTTPRP	-0.0245
RRIRTRPPRLPRPRPRPFIRPRP	0.00496
RRIRTRPPRLPRPRPRPWVPPRP	0.252
RRIRVRPPRLPRPRPRPDFDPRP	0.0753
RRIRYRPPRLPRPRPRPKPCPRP	-0.0304
RRIRWRPPRLPRPRPRPDWWPRP	0.0352
RRIRKRPPRLPRPRPRPSPMPRP	0.132
RRIRGRPPRLPRPRPRPREYPRP	0.355
RRIRMRPPRLPRPRPRPAEEPRP	1.55
RRIRWRPPRLPRPRPRPDGIPRP	0.151
RRIRHRPPRLPRPRPRPERNPRP	0.036
RRIRNRPPRLPRPRPRPTRMPRP	0.245
RRIRHRPPRLPRPRPRPPLQPRP	-0.127
RRIRNRPPRLPRPRPRPFYYPRP	-0.877
RRIRTRPPRLPRPRPRPRSHPRP	0.109
RRIRERPPRLPRPRPRPHSGPRP	-0.365
RRIRIRPPRLPRPRPRPNRSPRP	0.00656
RRIRTRPPRLPRPRPRPRHTPRP	-0.16
RRIRRRPPRLPRPRPRPWMTPRP	0.0417
RRIRKRPPRLPRPRPRPQCTPRP	-0.0504
RRIRPRPPRLPRPRPRPMVQPRP	0.0526

Sequence	shrunken log2 fold change
RRIRYRPPRLPRPRPRPQARPRP	-0.0547
RRIRLRPPRLPRPRPRPRVWPRP	0.655
RRIRNRPPRLPRPRPRPKTQPRP	-0.0734
RRIRMRPPRLPRPRPRPHMQPRP	-0.122
RRIRDRPPRLPRPRPRPQEEPRP	-0.0321
RRIRERPPRLPRPRPRPRQTPRP	0.253
RRIRIRPPRLPRPRPRPSGMPRP	-0.433
RRIRQRPPRLPRPRPRPAAYPRP	-0.169
RRIRSRPPRLPRPRPRPFTTPRP	-0.392
RRIRERPPRLPRPRPRPINGPRP	0.0683
RRIRIRPPRLPRPRPRPFRPPRP	0.023
RRIRIRPPRLPRPRPRPRTQPRP	0.106
RRIRGRPPRLPRPRPRPYYTPRP	1.19
RRIRCRPPRLPRPRPRPKFNPRP	-0.477
RRIRHRPPRLPRPRPRPVQVPRP	-0.162
RRIRFRPPRLPRPRPRPAEPPRP	0.137
RRIRYRPPRLPRPRPRPPVGPRP	0.0196
RRIRKRPPRLPRPRPRPMPDPRP	0.525
RRIRYRPPRLPRPRPRPVMIPRP	-0.596
RRIRQRPPRLPRPRPRPISFPRP	-0.0842
RRIRWRPPRLPRPRPRPERNPRP	-0.117
RRIRHRPPRLPRPRPRPGDRPRP	2.17
RRIRGRPPRLPRPRPRPHNTPRP	-0.277
RRIRSRPPRLPRPRPRPTTFPRP	-0.272
RRIRQRPPRLPRPRPRPMCTPRP	-0.173

Sequence	shrunken log2 fold change
RRIRGRPPRLPRPRPRPMSNPRP	0.473
RRIRSRPPRLPRPRPRPKGHPRP	-0.000921
RRIRQRPPRLPRPRPRPIHRPRP	-0.0654
RRIRCRPPRLPRPRPRPNQFPRP	-0.23
RRIRKRPPRLPRPRPRPSILPRP	-0.11
RRIRNRPPRLPRPRPRPCVIPRP	-0.318
RRIRMRPPRLPRPRPRPCTSPRP	0.0228
RRIRWRPPRLPRPRPRPQQVPRP	-0.00531
RRIRNRPPRLPRPRPRPPDTPRP	-0.0361
RRIRMRPPRLPRPRPRPLLFPRP	0.908
RRIRARPPRLPRPRPRPLSQPRP	0.263
RRIRKRPPRLPRPRPRPGHVPRP	-0.165
RRIRMRPPRLPRPRPRPCVQPRP	-0.0115
RRIRERPPRLPRPRPRPAHFPRP	0.0793
RRIRTRPPRLPRPRPRPYQNPRP	-0.3
RRIRDRPPRLPRPRPRPDGCPRP	0.252
RRIRFRPPRLPRPRPRPHERPRP	0.0652
RRIRSRPPRLPRPRPRPQGCPRP	-0.0814
RRIRLRPPRLPRPRPRPDLWPRP	0.774
RRIRSRPPRLPRPRPRPKVTPRP	-0.173
RRIRNRPPRLPRPRPRPANKPRP	0.0716
RRIRSRPPRLPRPRPRPQCGPRP	-0.129
RRIRQRPPRLPRPRPRPCQGPRP	-0.0332
RRIRFRPPRLPRPRPRPQLTPRP	-0.527
RRIRRRPPRLPRPRPRPDDQPRP	0.167
